Assay results as given in article PMC11285730 (Open Biology, 2024).

Molecular target: SARS-CoV-2 Wuhan RBD, de-glycosylated (SARS-CoV-2, UniProt P0DTC2)
Test: crystal structure
Settings: both partners purified

B1: B5-5 monomer (VHH)
VHH: QVQLVESGGGLVQPGGSLRLSCAVFGSTLDNYSVGWFRQLPGKEREGLACFSRRYGAPYYADSAKDRFTISRDNAKNTVDLQLNGLKPEDTAVYYCATRSGPYCTTSVSDFDDWGRGTQVTVSS
B1: binds.

B2: A8 monomer (VHH)
VHH: QVQLVESGGGLVQAGGSLRLSCAASGGTFSTAAMGWFRQAPGEERECVASIGWRGVRTWYADSVKGRFTISRDNPQNTVYLQMNNLKSGDTAVYYCAASVGNYGLPWAHFEYDFWGQGIQVTVSS
B2: binds.
